Results from publication PMC4729829, “BAP1/ASXL1 recruitment and activation for H2A deubiquitination” (Nature Communications, 2016).
Where a chain is given by its changes, count along the chain named. Names may count otherwise.

What was measured:
[1] = test system: BAP1 C91A;ASXL1 DEUBAD (ASXL1DEU); assay: stopped-flow fluorescence polarization; settings: 20 C, 20 nM NCP, histone H2A K119 mono-ubiquitinated by RING1B/BMI1, EMSA: 100 nM NCP, 4-12% Tris-glycine native gel, 4 C, FP: 25 mM HEPES pH 7.5, 150 mM NaCl, 0.05% Tween-20, 0.5 mM TCEP
[2] = target: BAP1/ASXL1^DEU complex (wild type) (human) (UniProt Q92560)
[3] = target: BRCA-1-associated protein 1 (BAP1), full length, wild type (human) (UniProt Q92560)
[4] = target: Nucleosome core particle mono-ubiquitinated at H2A K119 with N-terminally TAMRA-labeled ubiquitin (Xenopus | not stated) (UniProt P06897); assay: fluorescence polarisation; stopped-flow; 20 nM ^TAMRAUb-NCP mixed with various concentrations of inactive (C91A) BAP1 or BAP1/ASXL1^DEU; 25 mM HEPES pH 7.5, 150 mM NaCl, 0.05% Tween-20, 0.5 mM TCEP; 20 °C; kobs against concentration by linear regression
[5] = target: BAP1/ASXL1DEU complex (human) (UniProt Q92560)
[6] = target: T1, full-length BAP1 (BRCA-1-associated protein 1) (human), Q92560; assay: SEC-MALS; miniDawn detector in line with Superdex S75 10/30 (ASXL1DEU), Superose 6 10/30 (BAP1) or Superdex S200 10/30 (BAP1/ASXL1DEU); 10 mM HEPES pH 7.5, 150 mM NaCl, 0.5 mM TCEP, 4 °C; molecular weights from the refractive index signal; settings: remark: other sources report otherwise
T1 chain: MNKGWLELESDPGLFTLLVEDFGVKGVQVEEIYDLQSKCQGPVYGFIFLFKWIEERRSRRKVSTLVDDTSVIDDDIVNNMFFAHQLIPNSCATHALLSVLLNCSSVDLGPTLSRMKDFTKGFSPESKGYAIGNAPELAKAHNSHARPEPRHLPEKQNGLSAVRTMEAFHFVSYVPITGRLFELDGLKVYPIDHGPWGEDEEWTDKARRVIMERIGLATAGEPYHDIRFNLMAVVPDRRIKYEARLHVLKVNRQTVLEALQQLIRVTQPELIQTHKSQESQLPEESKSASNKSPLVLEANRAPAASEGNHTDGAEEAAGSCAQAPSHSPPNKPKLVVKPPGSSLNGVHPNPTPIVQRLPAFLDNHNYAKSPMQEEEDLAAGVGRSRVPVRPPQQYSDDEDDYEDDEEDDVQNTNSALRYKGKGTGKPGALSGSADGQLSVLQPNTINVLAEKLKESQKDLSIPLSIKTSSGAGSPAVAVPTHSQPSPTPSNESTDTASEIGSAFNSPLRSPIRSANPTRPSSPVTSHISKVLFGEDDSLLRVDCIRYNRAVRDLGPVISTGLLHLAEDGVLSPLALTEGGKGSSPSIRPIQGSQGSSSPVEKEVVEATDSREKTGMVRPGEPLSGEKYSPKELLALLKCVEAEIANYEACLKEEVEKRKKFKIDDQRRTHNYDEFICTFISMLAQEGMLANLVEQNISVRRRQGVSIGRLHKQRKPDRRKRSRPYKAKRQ

[7] = target: T2, full-length BAP1 (BRCA-1-associated protein 1) (human, UniProt Q92560 1-729); assay: ITC; VP-ITC at 25 °C; 25 mM HEPES pH 7.5, 150 mM NaCl, 10% glycerol, 0.5 mM TCEP; 30 μM ASXL1DEU (syringe) titrated into 13 μM BAP1 variant (cell), 10 or 5 μl injections; one-site binding model; settings: both partners purified
T2 construct: BAP1, uniprot Q92560, full length; Vector pFastBac-NKI-his-3C-LIC; no removal of the tag is described; also called FL BAP1; WT BAP1; source: Sf9 cells, purified (Ni2+ chelating sepharose, Poros HQ anion exchange, Superose 6 SEC)
T2 sequence (looked up): T1 chain

[8] = target: T3, BAP1 1-710 (lacks the C-terminal extension) (human, UniProt Q92560 1-710); assay: as above; settings: both partners purified
T3 construct: BAP1, uniprot Q92560, residues 1-710; Vector pFastBac-NKI-his-3C-LIC; source: Sf9 cells, purified (Ni2+ chelating sepharose, Poros HQ anion exchange, Superose 6 SEC)
T3 sequence (looked up): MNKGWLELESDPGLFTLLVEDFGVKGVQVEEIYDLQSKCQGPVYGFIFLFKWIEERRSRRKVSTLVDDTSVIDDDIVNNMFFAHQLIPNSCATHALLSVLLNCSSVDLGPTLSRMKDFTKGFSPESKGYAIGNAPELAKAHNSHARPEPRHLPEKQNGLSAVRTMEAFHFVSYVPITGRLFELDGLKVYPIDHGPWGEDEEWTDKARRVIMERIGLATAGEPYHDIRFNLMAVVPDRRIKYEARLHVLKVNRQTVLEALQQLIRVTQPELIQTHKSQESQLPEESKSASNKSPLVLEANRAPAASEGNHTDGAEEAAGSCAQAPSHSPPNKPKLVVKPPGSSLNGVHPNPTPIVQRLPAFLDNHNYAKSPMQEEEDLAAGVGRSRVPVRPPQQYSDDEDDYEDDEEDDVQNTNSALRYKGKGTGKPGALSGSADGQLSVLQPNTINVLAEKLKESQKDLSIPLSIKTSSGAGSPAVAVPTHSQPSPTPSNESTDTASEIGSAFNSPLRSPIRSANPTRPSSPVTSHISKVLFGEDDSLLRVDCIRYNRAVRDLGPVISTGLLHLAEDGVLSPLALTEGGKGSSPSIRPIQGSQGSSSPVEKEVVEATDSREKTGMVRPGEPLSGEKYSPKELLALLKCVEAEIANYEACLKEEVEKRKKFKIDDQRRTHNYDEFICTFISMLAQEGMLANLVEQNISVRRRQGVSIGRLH

[9] = target: T4, BRCA-1-associated protein 1 (BAP1), full length, wild type (human, UniProt Q92560 1-729); assay: SEC-MALS; SEC-MALLS, miniDawn detector; Superdex S75 10/30 (ASXL1^DEU), Superose 6 10/30 (BAP1) or Superdex S200 10/30 (BAP1/ASXL1^DEU); 10 mM HEPES pH 7.5, 150 mM NaCl, 0.5 mM TCEP; 4 °C; settings: both partners purified
T4 construct: BAP1 (BRCA-1-associated protein 1), human, UniProt Q92560, full length; Cloned into pFastBac-NKI-his-3C-LIC; In isolation it forms dimers and higher order oligomers (SEC-MALLS); also called WT BAP1; full-length BAP1; source: Sf9 cells, purified (Ni2+ chelating sepharose, Poros HQ anion exchange, Superose 6 SEC)
T4 sequence (looked up): T1 chain

[10] = target: T4, BRCA-1-associated protein 1 (BAP1), …; assay: ITC; 30 μM ASXL1^DEU in the syringe titrated (10 or 5 μl injections) into 13 μM BAP1 variant in the cell; 25 °C; 25 mM HEPES pH 7.5, 150 mM NaCl, 10% glycerol, 0.5 mM TCEP; one-site binding model; settings: both partners purified

Molecule: TAMRA-Ub-NCP (H2A K119ub, Widom 601 167 bp)
- Kd [1]: 4000 nM

Molecule: Non-hydrolyzable H2A-peptide ubiquitin conjugate (ubiquitin linked at the K119 position) (from UniProt P0CG48 1-75)
- IC50 of inhibition of Ub-AMC hydrolysis by the BAP1/ASXL1^DEU complex, against BAP1 alone (fold lower than BAP1 alone) [2]: > 10
- IC50 of inhibition of Ub-AMC hydrolysis by BAP1 (500 pM enzyme, 2 μM Ub-AMC, conjugate up to 200 μM) [3]: 45 μM

Molecule: BAP1 (C91A)/ASXL1^DEU complex (from UniProt Q92560 1-729; Q8IXJ9 238-390)
- Kd [4]: 4000 nM

Molecule: non-hydrolyzable H2A-peptide ubiquitin conjugate (H2A-K119) (from UniProt P0CG47 1-75)
- Supplementary Table 3: IC50 of the non-hydrolyzable H2A ubiquitin conjugate for inhibition of Ub-AMC hydrolysis by BAP1/ASXL1DEU [5]: 3300 nM

B1: full-length BAP1 (BRCA-1-associated protein 1), Q92560 1-729 (enzyme)
chain: T1 chain
- stoichiometry N [6]: 2

B2: ASXL1 DEUBAD domain (aa 238-390) (domain or fragment, human, UniProt Q8IXJ9 238-390, looked up)
chain: ATGQMKRNRGEEIDFETPGSILVNTNLRALINSRTFHALPSHFQQQLLFLLPEVDRQVGTDGLLRLSSSALNNEFFTHAAQSWRERLADGEFTHEMQVRIRQEMEKEKKVEQWKEKFFEDYYGQKLGLTKEESLQQNVGQEEAEIKSGLCVPG
notes: ASXL1, uniprot Q8IXJ9, DEUBAD domain, residues 238-390; Vector pET-NKI-his-3C-LIC; also called His-ASXL1DEU; source: E. coli, purified (Ni2+ chelating sepharose, Poros HQ anion exchange, Superdex 75 SEC)
- stoichiometry N [7]: 0.37 ± 0.002
- Kd [8]: 5 ± 0.16 nM
- stoichiometry N [8]: 0.27 ± 0.001

B3: ASXL1 DEUBAD domain (aa 238-390) (domain or fragment, human, UniProt Q8IXJ9 238-390, looked up)
chain: B2 chain
notes: ASXL1 (additional sexcombs like 1), human, UniProt Q8IXJ9, DEUBAD domain, aa 238-390; Cloned into pET-NKI-his-3C-LIC; printed as His-ASXL1^DEU; Monomeric in SEC-MALLS; also called His-ASXL1^DEU; WT ASXL1^DEU; source: E. coli, purified (Ni2+ chelating sepharose, Poros HQ anion exchange, Superdex 75 SEC)
- stoichiometry N [9]: 2 BAP1 molecules per ASXL1^DEU molecule
- Kd [10]: 18 nM
- stoichiometry N [10]: 0.25 to 0.5

B4: ASXL1 DEUBAD domain (aa 238-390) N310A/E311K/F312A (domain or fragment, human, UniProt Q8IXJ9 238-390, looked up)
chain: B2 chain with N73A, E74K, F75A
notes: ASXL1, uniprot Q8IXJ9, DEUBAD domain, residues 238-390, triple mutant of the NEF region; Variant of Dm4; also called ASXL1NEF DEU; NEF; source: E. coli, purified (Ni2+ chelating sepharose, Poros HQ anion exchange, Superdex 75 SEC)
- Kd [7]: 46 ± 0.14 nM
- stoichiometry N [7]: 0.32 ± 0.003

B5: ASXL1 DEUBAD domain triple mutant N310A/E311K/F312A (domain or fragment, human, UniProt Q8IXJ9 238-390, looked up)
chain: B2 chain with N73A, E74K, F75A
notes: ASXL1, human, UniProt Q8IXJ9, DEUBAD domain, aa 238-390, with N310A, E311K and F312A; Variant of m2; also called ASXL1NEF^DEU; NEF; source: E. coli, purified (Ni2+ chelating sepharose, Poros HQ anion exchange, Superdex 75 SEC)
- Kd [10]: 45 nM
